Data published in the nanobody polyreactivity screen of Harvey et al. (2022).

Test: yeast display, Sf9 membrane polyspecificity reagent, FACS + sequencing; frameworks hold sequencing errors
Outline: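 A synthetic nanobody library was expressed on Saccharomyces cerevisiae BJ5465 by galactose induction for 36–48 hours. The library was stained for 1 hour at 4 °C with 10% biotinylated, detergent-solubilized Sf9 membrane reagent and enriched with streptavidin microbeads before FACS. Low and high (top ~1%) gates were set on anti-HA fluorescence for expression and streptavidin fluorescence for reagent binding, and each polyreactivity label reflects the gate of origin.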

Sequence | polyreactivity (PSR sort gate)
QDQHVESGGGLVQAGGSLRLSCAASGTIFSYYAMGWYRQAPGKERELVASISWKGTSTYYADSVKGRFTISRDNSKNTVYLQMNSLKPEDTAVYYCNVRFNYRGTYDYWGQGTQVTVSS | low polyreactivity
QDQHVESGGGLVQAGGSLRLSCDASGFIFNQNARGWYRQAPGKERELVAAISQRGGRTYYADSVKGRFTISRDNAKNTVYLQMNSLKPEDTAVYYCAAYGPFRFDVDTYDYWGQGTQVTVSS | low polyreactivity
QDQHVESVGGLVQAGGSLLLSCAASGFTLRGYALGWDRQAPGKERELVADISGGGSTDYADSVKGRFTISRDNAKNTVYLQMNSLKPLDTAVYYCAAYGYLWWEMDYWGQGTQVTLSS | high polyreactivity
QDQIVDSGGGLVQAGVSLRLSCAASGFTFGINTLGWYRQAPGKERELVAGISRTSSTYADSVKGRFTISRDNAKNTVYLQMNSLNAEDTAVYYCAAEYFQTRFGSWRKRYVSWGQGTQVTVSS | high polyreactivity
QDQIVESGGGLVQAGGSLRLSCAASGRTFGVNTMGWSRQAPGKVREMVASISTSGGSTYADSVKGRFTISRDNPKNTVYLQMNSLKPEDSAVYYCAKDTDAVYDEFDSWGQGTQVTVSS | low polyreactivity
QDQLEESGGGLVQAGGSLRLSCGASGSIYDTNDMGWYRQAPGKERELVSAISSGGNTNYADSVKGRFTISRDNAKNTVYLQMKSVKPEDTAVYYWAAVWLGVYSVWTYHHYDYWGQGTQVTVSS | low polyreactivity
QDQLEESGGGLVQEGGSLRLSCAATGFTLAFNAMGWYRQAPGKERELVASITSSSGSTYYADSVKGRFTISRDNAKITVFLQMNSLKPEDTAVYYCARDLAIPQVLSQPIFGYWGQGTQVTVSS | low polyreactivity
QDQLGESGGGLLQAGGSLRLSCAASGRTFRYYAMGSYRQEPGKERELVAAISISGGNTYYADSVKGRFTISRDHAKNTVYLQMNSLKPEDTAVYYCAASFSSRFYRARVDYWGQGTQVTVSS | high polyreactivity
QDQLGESGGGLVQAGGSLRLICAASGRIFPYYAMAWYRQAAGKEREFVASITKRRGSTSYADSVKGRFTISRDNAKNTVYLQMHSLKPEDTAVYYCAARRGSGMVTYYGGDYWGQGTQVTVSS | low polyreactivity
QDQLGESGGGLVQAGGSLRLSCPASGFTVSNNVMGWSRQAPGKERELVADITWSGDGTYYADSVKGRFTISRDNAKKSVYLQMNSLKTEDTAVYYCNARYGKEYDYWGQGTQVTVSS | low polyreactivity
QDQLLESGGGLVQAGGSLLLSCAASGSTFFDYAMGWYRQAPGKERELVAVISDGGTTTYADSVKGRFTISRDNAKNTVYLQMNSLKPEDTAVYYCAAENQDGLLVILGGYGYWGQGTQVTVSS | low polyreactivity
QDQLLETGGGLVQAGGSLRLSCAASGSTSLVYAMGWYRQAPGKERELVADISWSGGSTYYTDSVKGRFTISRDNAKNTVYLQMNSLKPEDTAVYYCNGGTYSTSVPYPYKYWGQGTQVTVSS | high polyreactivity
QDQLVDSGGGIVQAGGILSLSCAASGRNIIYNAMGWYRQAPGKERELVAAINRSGVSTHYADSVKGRFTISRDNAKNTVYLQMTSLKPEDTAVYYCASTVYGARSYDYWGQGTQVTLSS | low polyreactivity
QDQLVDSGGGLLQAGGSLRLSCAASGSTFHPYAMGWYRQAPGKERELVAAITFSGGSTYADSVKGRFTISRDNAKNTVYIQMNSLKPEDTAVYYCAAEWWYWRGWRDYWGQGTQVTVSS | low polyreactivity
QDQLVDSGGGLLQAGGSLRLSCAASGSTLSKYAMGWNRQAPGKERELVAAISQRGGSTYYADSVKGRFTISRDNAKYTVYLQMNSLKPEDTAVSYCNALQRRYGYWGQGTQVTESS | high polyreactivity
QDQLVDSGGGLVKAGGNLRLSCPASGSTFDYNTMGWNIQEPGKESEMVAVITASGGSTYYADSVKGRFTISRDNAKNTVYLQMNSLKPEDTAVYYCAKDLYVSYYIGTCYYYWGQGTQVTVSS | low polyreactivity
